{"source": "paper PMC6966814", "about": "“Receptor kinase FERONIA regulates flowering time in Arabidopsis”", "binders": {"B1": {"name": "pFER competitor A (unlabeled WT) (dsDNA)", "DNA 1": "TCTCCCCCAAAATATCTCTGTCTTC", "DNA 2": "GAAGACAGAGATATTTTGGGGGAGA"}, "B2": {"name": "pFER-Mutant competitor B (AAATATCT to GGGGGGGG) (dsDNA)", "DNA 1": "TCTCCCCCAGGGGGGGGCTGTCTTC", "DNA 2": "GAAGACAGCCCCCCCCTGGGGGAGA"}, "B3": {"name": "pFER probe (EE element), FITC (dsDNA)", "DNA 1": "TCTCCCCCAAAATATCTCTGTCTTC", "DNA 2": "GAAGACAGAGATATTTTGGGGGAGA"}}, "key": {"[1]": {"target": "T1, GST-CCA1 (… CLOCK-ASSOCIATED1) (Arabidopsis thaliana, UniProt P92973 1-608)", "T1 sequence (P92973 whole entry)": "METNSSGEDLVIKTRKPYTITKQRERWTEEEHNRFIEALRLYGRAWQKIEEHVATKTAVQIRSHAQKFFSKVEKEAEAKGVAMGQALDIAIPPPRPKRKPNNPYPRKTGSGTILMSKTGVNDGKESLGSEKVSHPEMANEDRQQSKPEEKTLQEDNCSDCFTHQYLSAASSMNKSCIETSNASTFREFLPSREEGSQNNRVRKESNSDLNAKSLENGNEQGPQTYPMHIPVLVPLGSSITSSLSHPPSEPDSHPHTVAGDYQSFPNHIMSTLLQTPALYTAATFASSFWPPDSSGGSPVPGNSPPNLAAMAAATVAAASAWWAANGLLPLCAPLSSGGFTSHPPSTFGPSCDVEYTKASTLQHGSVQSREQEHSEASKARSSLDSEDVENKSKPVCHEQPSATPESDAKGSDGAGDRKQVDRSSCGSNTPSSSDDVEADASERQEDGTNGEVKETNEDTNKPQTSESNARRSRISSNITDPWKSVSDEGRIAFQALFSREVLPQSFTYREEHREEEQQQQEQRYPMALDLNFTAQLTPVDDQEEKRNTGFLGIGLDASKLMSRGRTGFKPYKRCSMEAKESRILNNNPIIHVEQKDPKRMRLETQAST", "experiment": "competition (EMSA); 100x unlabeled competitor vs FITC-pFER; EMSA: 100 mM Tris-HCl pH 8.0, 5 mM DTT, 2.5 mM EDTA, 0.25% Triton X-100, 25% glycerin; competitor 15 min then probe 20 min; 4% native PAGE, 0.5x TBE; temperature not stated", "settings": "protein: recombinant; label: none; blunt"}, "[2]": {"target": "T1, GST-CCA1 (… CLOCK-ASSOCIATED1)", "experiment": "competition (EMSA); 100x unlabeled competitor vs FITC-pFER; did not compete; EMSA: 100 mM Tris-HCl pH 8.0, 5 mM DTT, 2.5 mM EDTA, 0.25% Triton X-100, 25% glycerin; competitor 15 min then probe 20 min; 4% native PAGE, 0.5x TBE; temperature not stated", "settings": "protein: recombinant; label: none; blunt"}, "[3]": {"target": "T1, GST-CCA1 (… CLOCK-ASSOCIATED1)", "experiment": "EMSA; 20 fmol probe, 5 ug protein; EMSA: 100 mM Tris-HCl pH 8.0, 5 mM DTT, 2.5 mM EDTA, 0.25% Triton X-100, 25% glycerin; competitor 15 min then probe 20 min; 4% native PAGE, 0.5x TBE; temperature not stated", "settings": "protein: recombinant; label: FITC on strand 1 (S35; printed after its 3' end); blunt"}}, "data": [{"binder": "B1", "values": [{"measurement": "binding result", "setting": "[1]", "result": "binds"}]}, {"binder": "B2", "values": [{"measurement": "binding result", "setting": "[2]", "result": "no binding"}]}, {"binder": "B3", "values": [{"measurement": "binding result", "setting": "[3]", "result": "binds"}]}]}
